The record followed here is patent publication US20140241984A1.

Experiment [1] deals with α-synuclein fibrils (human), P37840. Kind of experiment: SPR, BIAcore X100; fibrils immobilised on CM5, mAb injected at 0.01-10 nM. Particulars: remark: other sources report otherwise. Background: Surface plasmon resonance follows binding to a sensor surface in real time, without labels.
Experiment [2] has the same target. Put plainly: inhibition ELISA; fibrils against monomers. Particulars: remark: other sources report otherwise. For orientation: In an ELISA, binding on a coated surface is turned into a signal by an enzyme label.

B1: Syn-O1 (antibody, IgG2b, V domains shown)
VH: EVQLVESGGGLVQPKGSLKLSCAASGFTFNTYAMHWVRQAPGKGLEWVARIRSKSSNYATYYADSVKDRFTISRDDSQSMLYLQMNNLKTEDTAMYYCVRPLKWYFDVWGTGTTVTVSS
VL: QIVLTQSPAILSASPGEKVTMTCSASSTVNYMHWYQQKSGTSPKIWIYDTSKLASGVPARFSGSGSWTSYSLTISSMEAEDAATYYCQQWNSNPPTFGAGTKLELK
In experiment [1], B1 yielded a Kd of 0.016 nM, a koff of 9.36e-05 s⁻¹ and a kon of 5.86e+06 M⁻¹ s⁻¹. The Fold Affinity to Fibrils in experiment [2] came out at 12700 fold.

B2: Syn-O3 (antibody, IgG1, V domains shown)
VH: EVQLVESGGGLVQPKGSLKLSCAASGFTFNTYAMHWVRQAPGKGLEWVARIRSKSSNYATYYADSVKDRFTISRDDSQSMLYLQMNNLKTEDTAMYYCVRPLKWYFDVWGTGTTVTVSS
VL: QIVLTQSPAILSASPGEKVTMTCSASSTVNYMHWYQQKSGTSPKIWIYDTSKLASGVPARFSGSGSWTSYSLTISSMEAEDAATYYCQQWNSNPPTFGAGTKLELK
In experiment [1], B2 had a Kd of 0.171 nM, a koff of 0.000379 s⁻¹ and a kon of 2.22e+06 M⁻¹ s⁻¹. This molecule showed a Fold Affinity to Fibrils in experiment [2] of 11100 fold.

B3: Syn-O2 (antibody, IgG1, V domains shown)
VH: EVQLVESGGGLVQPKGSLKLSCAASGFTFNTYAMHWVRQAPGKGLEWVARIRSKSSNYATYYADSVKDRFTISRDDSQSMLYLQMNNLKTEDTAMYYCVRPLKWYFDVWGTGTTVTVSS
VL: QIVLTQSPAILSASPGEKVTMTCSASSTVNYMHWYQQKSGTSPKIWIYDTSKLASGVPARFSGSGSWTSYSLTISSMEAEDAATYYCQQWNSNPPTFGAGTKLELK
Turning to B3, in experiment [1], the Kd worked out at 0.0969 nM, the off-rate (koff) turned out to be 0.00127 s⁻¹ and the kon was 1.31e+07 M⁻¹ s⁻¹. In addition, the Fold Affinity to Fibrils in experiment [2] was found to be 27300 fold.

B4: Syn-O4 (antibody, IgG1, V domains shown)
VH: EVQLVESGGGLVQPKGSLKLSCAASGFTFNTYAMHWVRQAPGKGLEWVARIRSKSSNYATYYADSVKDRFTISRDDSQSMLYLQMNNLKTEDTAMYYCVRPLKWYFDVWGTGTTVTVSS
VL: QIVLTQSPAILSASPGEKVTMTCSASSTVNYMHWYQQKSGTSPKIWIYDTSKLASGVPARFSGSGSWTSYSLTISSMEAEDAATYYCQQWNSNPPTFGAGTKLELK
In experiment [1], B4 registered a Kd of 0.138 nM, a koff of 0.000996 s⁻¹ and a kon of 7.24e+06 M⁻¹ s⁻¹. Also, the Fold Affinity to Fibrils in experiment [2] stood at 6930 fold.

B5: Syn-F1 (antibody, V domains shown)
VH: DVQLVESGGDLVQPGGSRKLSCAASGFTFSSFGMHWVRQAPEKGLEWVAYINSGSSTIYYADTVKGRFTISRDNPKNTLFLQMTSLRSEDTAMYYCARGNNPGTGYYYSMDYWGQGTSVTVSS
VL: not shown
With B5, in experiment [1], the Kd came out at 0.127 nM, the koff was 0.00156 s⁻¹ and the kon amounted to 1.23e+07 M⁻¹ s⁻¹. Further, the Fold Affinity to Fibrils in experiment [2] came to 16600 fold.

B6: Syn-F2 (antibody, IgG2a, V domains shown)
VH: DVQLVESGGGLVQPGGSRKLSCAASGFTFSSFGMHWVRQAPEKGLEWVAYISSGSSTIYYADTVKGRFTISRDNPKNTLFLQMTSLRSEDTAMYYCARGNNPGTGYYYAMDYWGQGTSVTVSS
VL: not shown
For the molecule B6, in experiment [1], the Kd is 2.69 nM, the koff amounted to 0.00338 s⁻¹ and the kon was 1.26e+06 M⁻¹ s⁻¹. This molecule gave a Fold Affinity to Fibrils in experiment [2] of 3140 fold.

Broadly, the Kd is the free concentration of one partner at which half of the binding sites on the other are occupied at equilibrium, for simple one-to-one binding. A higher Kd goes with lower affinity. Broadly, the koff is the rate constant with which the complex falls apart. High values mean fast dissociation, low ones slow dissociation. Usually kon stands for the rate constant with which the complex forms. A low value points to slow association.
